Measurements published in article PMC10592209 (Neuron, 2023).

Target: the molecule itself
Assay: native gel or EMSA

B1: voltage-gated HCN1 channel (natural protein, mouse (endogenous in brain), UniProt O88704 1-910, looked up)
chain: MEGGGKPNSASNSRDDGNSVFPSKAPATGPVAADKRLGTPPGGGAAGKEHGNSVCFKVDGGGGEEPAGSFEDAEGPRRQYGFMQRQFTSMLQPGVNKFSLRMFGSQKAVEKEQERVKTAGFWIIHPYSDFRFYWDLIMLIMMVGNLVIIPVGITFFTEQTTTPWIIFNVASDTVFLLDLIMNFRTGTVNEDSSEIILDPKVIKMNYLKSWFVVDFISSIPVDYIFLIVEKGMDSEVYKTARALRIVRFTKILSLLRLLRLSRLIRYIHQWEEIFHMTYDLASAVVRIFNLIGMMLLLCHWDGCLQFLVPLLQDFPPDCWVSLNEMVNDSWGKQYSYALFKAMSHMLCIGYGAQAPVSMSDLWITMLSMIVGATCYAMFVGHATALIQSLDSSRRQYQEKYKQVEQYMSFHKLPADMRQKIHDYYEHRYQGKIFDEENILSELNDPLREEIVNFNCRKLVATMPLFANADPNFVTAMLSKLRFEVFQPGDYIIREGAVGKKMYFIQHGVAGVITKSSKEMKLTDGSYFGEICLLTKGRRTASVRADTYCRLYSLSVDNFNEVLEEYPMMRRAFETVAIDRLDRIGKKNSILLQKFQKDLNTGVFNNQENEILKQIVKHDREMVQAIPPINYPQMTALNCTSSTTTPTSRMRTQSPPVYTATSLSHSNLHSPSPSTQTPQPSAILSPCSYTTAVCSPPIQSPLATRTFHYASPTASQLSLMQQPQQQLPQSQVQQTQTQTQQQQQQQQQQQQQQQQQQQQQQQQQQQQQQQQQQQQQPQTPGSSTPKNEVHKSTQALHNTNLTKEVRPLSASQPSLPHEVSTLISRPHPTVGESLASIPQPVAAVHSTGLQAGSRSTVPQRVTLFRQMSSGAIPPNRGVPPAPPPPAAVQRESPSVLNTDPDAEKPRFASNL
  stoichiometry N: 4

B2: acid-gated ASIC1 channel (natural protein, mouse (endogenous in brain), UniProt Q6NXK8 1-526, looked up)
chain: MELKTEEEEVGGVQPVSIQAFASSSTLHGLAHIFSYERLSLKRALWALCFLGSLAVLLCVCTERVQYYFCYHHVTKLDEVAASQLTFPAVTLCNLNEFRFSQVSKNDLYHAGELLALLNNRYEIPDTQMADEKQLEILQDKANFRSFKPKPFNMREFYDRAGHDIRDMLLSCHFRGEACSAEDFKVVFTRYGKCYTFNSGQDGRPRLKTMKGGTGNGLEIMLDIQQDEYLPVWGETDETSFEAGIKVQIHSQDEPPFIDQLGFGVAPGFQTFVSCQEQRLIYLPSPWGTCNAVTMDSDFFDSYSITACRIDCETRYLVENCNCRMVHMPGDAPYCTPEQYKECADPALDFLVEKDQEYCVCEMPCNLTRYGKELSMVKIPSKASAKYLAKKFNKSEQYIGENILVLDIFFEVLNYETIEQKKAYEIAGLLGDIGGQMGLFIGASILTVLELFDYAYEVIKHRLCRRGKCQKEAKRNSADKGVALSLDDVKRHNPCESLRGHPAGMTYAANILPHHPARGTFEDFTC
  stoichiometry N: 3
